The results in this text go back to patent US20070172423A1, “Composition and method for modulating vasculogenesis for angiogenesis” (priority 1998, published 2007).

The subject of experiment [1] is endothelial progenitor cells (EPCs). Kind of experiment: EPC mobilization assay. It is filed as in vivo, mice. Here is the method:
For EPC mobilization assay, mice were treated with PDGF-CC protein (4.5 μg/day) immediately after femoral artery ligation using subcutaneously implanted osmotic minipumps (Alzet, type 2001). After two or five days, mice were sacrificed and spleens harvested for EPC analysis using procedures described previously (Asahara et al., Circ Res, 1999 85:221-8; Dimmeler et al., J. Clin. Invest., 2001 108:391-397). Spleens were mechanically minced using syringe plungers and laid over Ficoll to isolate splenocytes. Splenocytes were seeded into fibronectin-coated 24-well plates in 0.5 ml EBM medium. After three weeks of culturing, adherent cells were stained for Dil-Ac-LDL/lectin and number of the positive cells counted. Late outgrowth EPCs (after 3 weeks of culture) were identified by metabolic uptake of DiI-acetylated-LDL (Molecular Probes) and positive staining of Alexa 488-labeled isolectin B4 (Molecular Probes). Quantification of the EPC density was performed by confocal microscopy in five microscopic fields at 200× magnification, and average EPC density calculated.
To examine the possible mechanism of how PDGF-CC stimulates vessel growth and maturation, we next assessed its effects on vascular endothelial progenitor cells (EPCs). […] By scoring after 3 weeks, only late-outgrowth EPCs, but not surviving sloughed-off endothelial cells, are selectively assayed (Lin et al., J Clin Invest, 2000 105:71-7; Rafii, S., J Clin Invest, 2000 105:17-9).

The target in experiment [2] is T1, human VEGFR-3 (Homo sapiens, UniProt P35916).
T1 construct: soluble Ig-fusion proteins containing the extracellular domains of human VEGFR-1, VEGFR-2 and VEGFR-3; made in house; host or cells: human 293 EBNA cells, transient expression
T1 sequence (P35916 25-775 limits assumed): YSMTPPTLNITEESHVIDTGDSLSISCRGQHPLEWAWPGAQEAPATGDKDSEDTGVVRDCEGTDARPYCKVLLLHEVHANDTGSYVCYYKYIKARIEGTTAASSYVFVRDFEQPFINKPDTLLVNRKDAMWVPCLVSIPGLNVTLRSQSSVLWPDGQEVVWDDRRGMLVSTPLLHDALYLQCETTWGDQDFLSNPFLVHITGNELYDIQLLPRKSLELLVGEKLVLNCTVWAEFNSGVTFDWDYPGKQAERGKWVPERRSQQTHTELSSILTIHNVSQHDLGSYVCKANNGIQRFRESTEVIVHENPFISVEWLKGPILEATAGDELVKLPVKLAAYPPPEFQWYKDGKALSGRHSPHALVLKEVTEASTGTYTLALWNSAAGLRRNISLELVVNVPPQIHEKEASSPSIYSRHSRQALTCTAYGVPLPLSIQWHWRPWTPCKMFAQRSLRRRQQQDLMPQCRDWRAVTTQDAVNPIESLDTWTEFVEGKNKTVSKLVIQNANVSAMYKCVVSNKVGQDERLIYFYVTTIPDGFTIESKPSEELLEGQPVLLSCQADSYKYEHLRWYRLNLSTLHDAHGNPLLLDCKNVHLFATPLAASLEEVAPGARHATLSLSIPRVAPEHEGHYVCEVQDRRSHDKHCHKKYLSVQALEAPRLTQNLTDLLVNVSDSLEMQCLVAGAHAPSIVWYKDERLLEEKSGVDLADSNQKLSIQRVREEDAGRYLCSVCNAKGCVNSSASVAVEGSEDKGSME
Nature of the experiment: Binding to soluble VEGFR-3-Ig fusion protein. The note with it: 35S-labeled protein in conditioned medium from 293 cells, precipitation with Ig-fusion protein. As to the method:
(§1) To assess the interactions between full length and truncated PDGF-C and the VEGF receptors, full length and truncated PDGF-C were tested for their capacity to bind to soluble Ig-fusion proteins containing the extracellular domains of human VEGFR-1, VEGFR-2 and VEGFR-3 (Olofsson et al., Proc. Natl. Acad. Sci. USA, 1998 95:11709-11714). The fusion proteins, designated VEGFR-1-Ig, VEGFR-2-Ig and VEGFR-3-Ig, were transiently expressed in human 293 EBNA cells. All Ig fusion proteins were human VEGFRs. Cells were incubated for 24 hours after transfection, washed with Dulbecco's Modified Eagle Medium (DMEM) containing 0.2% bovine serum albumin and starved for 24 hours. The fusion proteins were then precipitated from the clarified conditioned medium using protein A-Sepharose beads (Pharmacia). The beads were combined with 100 microliters of 10× binding buffer (5% bovine serum albumin, 0.2% Tween 20 and 10 µg/ml heparin) and 900 microliter of conditioned medium from 293 cells that had been transfected with mammalian expression plasmids encoding full length or truncated PDGF-C or control vector, then metabolically labeled with ^35S-cysteine and methionine (Promix, Amersham) for 4 to 6 hours. […] Labeled proteins that were bound to the Ig-fusion proteins were analyzed by SDS-PAGE under reducing conditions. Radiolabeled proteins were detected using a phosphorimager analyzer.

Experiment [3] has as its target T2, human VEGFR-1 (Homo sapiens, UniProt P17948).
T2 construct: soluble Ig-fusion proteins containing the extracellular domains of human VEGFR-1, VEGFR-2 and VEGFR-3; made in house; host or cells: human 293 EBNA cells, transient expression
Nature of the experiment: Binding to soluble VEGFR-1-Ig fusion protein. To be noted: 35S-labeled protein in conditioned medium from 293 cells, precipitation with Ig-fusion protein. Here is the method:
as §1

Experiment [4] deals with NIH-3T3 fibroblast cells. Nature of the experiment: NIH-3T3 proliferation assay. It is filed as cell-based. To be noted: two days, different concentrations. As to the method: Cell migration assays were performed on growth arrested confluent HMVEC, BAEC or hSMC cells. Cell monolayers were wounded with a rubber policeman and washed with serum-free medium. Dishes were then incubated for 20 hours in serum-free medium containing VEGF165, PDGF-AA, (R&D Systems, Minneapolis USA) or PDGF-CC. Each assay included two dishes per condition and was repeated three times independently. Cells were photographed at 40× magnification, and migration percentage corresponding to the ratio between area of the cells and the total area of the wound (Biocom visiol@b 2000 version 4.52, San Diego). For HMVEC proliferation assay, cells were seeded in 96-well plates (5 wells per condition), and incubated with VEGF, PDGF-AA, or PDGF-CC (50 ng/ml) after serum starvation. After 7 days, viable cells were counted using the cell Titer-glo luminescent cell viability assay. For NIH-3T3 and hSMC proliferation assay, cells cultured in 96-well plates were serum-starved overnight, followed by treatment with growth factors at different concentrations. Two days later, cell numbers were counted and proliferation percentage calculated, using cells cultured in medium containing 10% serum as control. Aortic ring assay was performed as described 51. […] Aortic rings were analysed at day 9 of culturing. […]

T2 sequence (P17948 27-758 limits assumed): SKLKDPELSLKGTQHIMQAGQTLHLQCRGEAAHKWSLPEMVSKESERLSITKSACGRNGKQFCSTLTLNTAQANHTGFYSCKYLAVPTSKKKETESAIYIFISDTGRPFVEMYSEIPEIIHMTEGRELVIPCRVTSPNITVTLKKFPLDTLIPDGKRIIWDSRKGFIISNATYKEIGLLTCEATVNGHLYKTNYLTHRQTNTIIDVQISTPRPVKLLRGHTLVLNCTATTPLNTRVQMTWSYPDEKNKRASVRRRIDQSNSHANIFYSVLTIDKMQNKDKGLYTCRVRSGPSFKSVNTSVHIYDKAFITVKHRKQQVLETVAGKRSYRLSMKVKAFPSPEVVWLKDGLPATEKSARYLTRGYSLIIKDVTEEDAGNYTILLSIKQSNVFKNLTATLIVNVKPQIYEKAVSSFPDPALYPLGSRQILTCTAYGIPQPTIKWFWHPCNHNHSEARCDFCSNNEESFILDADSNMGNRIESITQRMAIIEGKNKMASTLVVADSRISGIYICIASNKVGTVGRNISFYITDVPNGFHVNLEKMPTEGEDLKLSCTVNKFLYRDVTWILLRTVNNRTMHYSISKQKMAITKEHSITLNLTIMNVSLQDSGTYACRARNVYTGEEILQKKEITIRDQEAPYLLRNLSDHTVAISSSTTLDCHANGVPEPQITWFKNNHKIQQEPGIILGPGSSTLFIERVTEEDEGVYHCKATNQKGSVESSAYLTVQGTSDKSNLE

B1: PDGF-CC: recombinant human PDGF-CC core domain homodimer, residues 230-345 of full-length PDGF-C (SEQ ID NO:40), produced in baculovirus infected insect cells (protein)
chain: GRKSRVVDLNLLTEEVRLYSCTPRNFSVSIREELKRTDTIFWPGCLLVKRCGGNCACCLHNCNECQCVPSKVTKKYHEVLQLRPKTGVRGLHKSLTDVALEHHEECDCVCRGSTGG
modifications: homodimer; PDGF-C core domain
With B1, the “mobilization of EPCs” value in experiment [1] (baseline conditions (no ischemia)) was “did not affect”. The “augmentation of EPC mobilization” value in experiment [1] (femoral artery ligation, day five) is given as “persisted to day five, albeit at a lower level”. Besides, the “augmentation of EPC mobilization above control group” value in experiment [1] (femoral artery ligation, two days, 4.5 μg/day via minipump) was “approximately 3 fold”. Further, in experiment [1] (from day 2 to day 5 after hind limb ischemia), the “augmentation of EPC mobilization compared with the vehicle group (FIG. 38 legend)” value is given as around 4 fold. The “interaction with VEGFR-3-Ig” value in experiment [2] was “failed to show any interaction”. In addition, the “interaction with VEGFR-1-Ig” value in experiment [3] is “failed to show any interaction”. Moreover, the “proliferation of cultured NIH-3T3 fibroblast cells” value in experiment [4] is on record as “stimulated”.
